Source: patent US20090155236A1, “Peptide sequence for modulation of delta protein kinase c” (NATIONAL INSTITUES OF HEALTH (NIH), U.S. DEPT OF HEALTH AND …, priority 2004, published 2009)

Molecular target: recombinant full-length delta PKC (rat)
Test: ELISA, both in the absence and in the presence of calcium

percent binding: 70%
B1: annexin I (protein)
chain: AMVSEFLKQAWFIENEEQEYVQTVKSSKGGPGSAVSPYPTFNPSSDVAALHKAIMVKGVDEATIIDILTKRNNAQRQQIKAAYLQETGKPLDETLKKALTGHLEEVVLALLKTPAQFDADELRAAMKGLGTDEDTLIEILASRTNKEIRDINRVYREELKRDLAKDITSDTSGDFRNALLSLAKGDRSEDFGVNEDLADSDARALYEAGERRKGTDVNVFNTILTTRSYPQLRRVFQKYTKYSKHDMNKVLDLELKGDIEKCLTAIVKCATSKPAFFAEKLHQAMKGVGTRHKALIRIMVSRSEIDMNDIKAFYQKMYGISLCQAILDETKGDYEKILVALCGGN
